Reference: the supplement of paper PMC12042874
± gives the uncertainty stated by the source.

Experiment: amyloid nucleation score (Sup35N fusion, yeast selection) (log enrichment); library NNK2; higher = more nucleation; inactive = no reads after selection
Outline: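 Random libraries were run with three technical output replicates. In each, psi-negative yeast expressing Sup35N fused to peptides of 20 random codons were induced 24 hours with 100 μM copper sulfate and grown 7 days at 30°C on medium lacking adenine and uracil, and input and output plasmid inserts were Illumina-sequenced. The nucleation score is the DiMSum log enrichment of output over input reads, centred on the mode score of non-aggregating sequences, and sequences under 100 input reads were excluded.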

| Substance | amyloid nucleation score |
| --- | --- |
| KTAVSNVRCMY | -0.227 ± 0.62 |
| KTIVSYV | inactive |
| KTLRCQRMVGYWGIRVDLGR | 1.31 ± 0.42 |
| KTNVMERCHFQRILCFGMW | inactive |
| KTYGGLLSLPVVLRMLEPRA | 0.319 ± 0.61 |
| KVALL | -0.257 ± 0.76 |
| KVELYYWVSTLSVCSLALYS | 6.07 ± 0.084 |
| KVISSVSEPLSKKEDYE | -0.706 ± 0.3 |
| KVKGLILDHDYRFRI | inactive |
| KVKSLYLSMVQGWMFYV | -0.425 ± 0.24 |
| KVPDKGEKLCSLLAFGYQG | 0.736 ± 0.8 |
| KVSWEDSFLFLCQCRRDCTL | 8.707 ± 0.039 |
| KVTARPFRQC | 4.997 ± 0.045 |
| KVVCLMVISCCLPLAPHRGW | 3.53 ± 0.11 |
| KVVGGLVLHGSL | inactive |
| KVYATVDFDLLGQAPTSAMN | 4.83 ± 0.091 |
| KWMLHSVR | 0.772 ± 0.22 |
| KYFVTNRVVWTDRVSIFGV | 1.07 ± 0.53 |
| KYMRLSSPAGSAVPLWTLYL | 0.148 ± 1 |
| KYRCLLRATPFDKEVGSTRF | -0.753 ± 1 |
| KYVSCNLLIGWYTLFSFYPF | -0.649 ± 0.4 |
| KYWFDGYLGYF | -1.14 ± 0.29 |
| LAAVLVHAWFVKRLRMPNHH | 0.93 ± 0.44 |
| LACTKQFQVAVVFPDYTFIA | 3.71 ± 0.064 |
| LAFAILFPFGSLRDGST | 0.585 ± 0.8 |

| Substance | amyloid nucleation score |
| --- | --- |
| LAFFGVLSSFYSRFGIKTKM | -1.83 ± 0.54 |
| LAFMRLPAVVLSSTLSFMKS | 0.789 ± 0.66 |
| LAHHMF | 0.429 ± 0.8 |
| LAIVLRGNFTIVSTAIE | 3.26 ± 0.1 |
| LALFALMLLLF | -0.055 ± 0.26 |
| LAMEWSRCRTGPL | 1.68 ± 0.15 |
| LARASKHCSEVLGDCLA | 0.366 ± 0.8 |
| LARCGPKLW | 3.43 ± 0.07 |
| LARYFAKKLYNFYFLAFTGW | 1.14 ± 0.29 |
| LASMMPSKIPN | inactive |
| LATKMSRGYSIRDWS | 0.052 ± 0.24 |
| LAVKRMFSNFIFKAGTRNIW | inactive |
| LAYLSLICFCVDSPTQVGLM | 10.11 ± 0.038 |
| LCAGGVGRRWLVLDTAECDG | 0.59 ± 0.64 |
| LCCLMDFMITNLITFQRMTS | 4.33 ± 0.11 |
| LCEEICLDFFMVRMFKHASY | 1.63 ± 0.11 |
| LCGNRGFYDH | -0.177 ± 0.54 |
| LCIEMD | 0.566 ± 0.38 |
| LCPYR | -0.776 ± 1.1 |
| LCSCANCLYSFFTG | 8.04 ± 0.023 |
| LCWFAMLEYVWDGHAVGDSI | 4.06 ± 0.061 |
| LCWFSNRSRLEEVS | inactive |
| LCYFCISGDRHSLEVKTLVT | -0.527 ± 0.4 |
| LCYWCTCR | 0.141 ± 0.41 |
| LCYWPYDSVYLLTRFTVNGF | -0.349 ± 0.25 |

| Substance | amyloid nucleation score |
| --- | --- |
| LDEPRM | 0.16 ± 0.24 |
| LDGFLLSISLRINKRLSSGR | 4.79 ± 0.061 |
| LDIITGLSSISGTHIFGSSP | -0.627 ± 0.78 |
| LDINIFM | -0.304 ± 1.1 |
| LDLSDHWACQIIGVL | 0.394 ± 0.43 |
| LDMITTINS | -1.6 ± 0.54 |
| LDRDVVYTCVDCVFGVGILK | -1.19 ± 0.75 |
| LDRSRTKSWLGDFWG | -0.074 ± 0.46 |
| LDRYLG | 0.064 ± 0.3 |
| LDSGHNGDVNGG | -0.45 ± 0.64 |
| LDSVQWNGCMIRYSYLGMGW | -0.138 ± 0.3 |
| LDSWRPN | -0.393 ± 0.39 |
| LDVAGKVKASHKLRAWVWFS | 0.436 ± 0.8 |
| LDVTHN | 0.6 ± 0.35 |
| LDVVWSRVVRCRCVSWGNSL | 0.054 ± 0.65 |
| LDYRPCEDNDDVDVSEILHG | 0.224 ± 0.25 |
| LECRLC | 0.308 ± 0.25 |
| LECVT | 0.078 ± 0.74 |
| LEGFTRA | -0.909 ± 0.36 |
| LEGMFLPGFFSCVRFLWL | -1.51 ± 0.78 |
| LELHGT | -1.22 ± 0.45 |
| LELKFFHHPSPCFYNITQSA | 3.76 ± 0.092 |
| LELLSLIFSFG | 2.13 ± 0.18 |
| LELMEYPL | -0.153 ± 0.45 |
| LEMFYRVPLPRCKTYLQFRC | 0.471 ± 0.62 |

| Substance | amyloid nucleation score |
| --- | --- |
| LENWSNMGENCSTVDRPNLF | -0.4 ± 1.1 |
| LETGNRRHTEYLCYDVWVIL | 0.394 ± 0.39 |
| LEWLFA | 0.155 ± 1.1 |
| LFCTFKLRAMTFTSNKSRVV | 1.04 ± 0.43 |
| LFDSCSDSRMFNWMGPSNGQ | inactive |
| LFDVMIQTRCLYHWNSPHNL | 5.14 ± 0.065 |
| LFEFSFITPYGV | -0.531 ± 0.44 |
| LFEMC | 0.443 ± 0.26 |
| LFFFSGRWKVNGGIVDGCGV | 0.166 ± 0.45 |
| LFGTNFYVQDNIVKGRVLIM | inactive |
| LFIDDVPVDSITYGIWARGC | -1.5 ± 1.1 |
| LFIYLGDQSSNKVKPTHFRE | -0.497 ± 0.33 |
| LFKFDVPTNIKCYIRSSCSI | inactive |
| LFKPLRNR | -0.918 ± 0.33 |
| LFLSLTTQNWFNYNLPI | 7.32 ± 0.026 |
| LFRRGKILACIYA | 0.016 ± 1.1 |
| LFSMSL | -1.27 ± 1 |
| LFSYWSVYSGLREVGPYCMV | 0.79 ± 0.21 |
| LFTKRRW | 0.87 ± 0.46 |
| LFVVTVTIMCYLSKEYVGLP | 0.039 ± 0.51 |
| LFWGWITFTKECTNWGATIG | 0.895 ± 0.58 |
| LFWHLHSNFIADVLLNVRLC | 1.13 ± 0.53 |
| LFYKVFAYLFFVDVVCASKG | 4.97 ± 0.062 |
| LGCMNDNMSNYYCGHR | -1.31 ± 0.55 |
| LGDLFYYFTVRK | 0.389 ± 0.66 |

| Substance | amyloid nucleation score |
| --- | --- |
| LGFIHSTG | inactive |
| LGFLAEELCMSMMGIVDVPE | inactive |
| LGHASSFCAYCRFDSM | 4.16 ± 0.068 |
| LGICPFNGSLRS | -1.65 ± 1.1 |
| LGIVDRTFQSMPYVGWMMV | 0.563 ± 0.36 |
| LGLCLHLISSFRHRYAVLSR | -0.19 ± 0.3 |
| LGNRVRMSWNW | 0.807 ± 0.44 |
| LGPCSVIGQMVMYDRYGLLD | -0.313 ± 0.76 |
| LGRLIWTRVSYCMSQINRVR | 2.23 ± 0.061 |
| LGSVLLRFRH | -0.469 ± 0.23 |
| LGSYVACPRDTKDYQNNSMC | -0.877 ± 0.48 |
| LGTLGYTDAILWNYMSHCKG | inactive |
| LGTSRGNDVENRAYSRWVKV | 0.524 ± 0.81 |
| LGVFWIDWPLLLGFRSRTGV | -0.393 ± 1.1 |
| LHCRSCGF | -0.193 ± 0.43 |
| LHIESRLRRSSQEKSN | 0.012 ± 0.45 |
| LHILRA | 0.605 ± 0.47 |
| LHLFIVGRKWSGDESAFLYA | 0.154 ± 0.5 |
| LHSNCRV | 0.343 ± 0.8 |
| LHSVMMLGGRIRPHPQVHSL | 0.471 ± 0.26 |
| LHSYWH | 0.121 ± 0.2 |
| LHVMYQTAMRAFAWNVTDLG | -0.032 ± 0.8 |
| LIAFMRF | 5.688 ± 0.042 |
| LIEFAFVQFCNIVIEP | 7.102 ± 0.031 |
| LIEVQGSFYIVSALIGYRCG | 0.414 ± 0.21 |

| Substance | amyloid nucleation score |
| --- | --- |
| LIGIARSRVYRVKECFVHGL | 0.519 ± 0.43 |
| LIHLNNAMIEHCMFEVRSFG | -0.016 ± 0.26 |
| LIIFTGYRCSLPFMSFF | -0.945 ± 1 |
| LILRSVSNYAITIMFAFDTR | 4.39 ± 0.096 |
| LIQRVRGCWTSYVYGGVWSR | 1.66 ± 0.34 |
| LIQVAFQLYATVQVTVKTDV | 2.09 ± 0.26 |
| LIRFYEIFSW | -0.237 ± 1 |
| LIRKFRVVVMFSYVQVLPVI | 0.173 ± 1.1 |
| LISATPQSSFHHFEMNSGSH | 0.275 ± 0.23 |
| LISKSGSFMNMLGTGDRAR | 0.005 ± 1 |
| LIVSAALRYNKDLLWIS | -0.004 ± 0.39 |
| LIVSKWVHLWGYNALDNKEK | -1.65 ± 0.62 |
| LIYNVDSVMNFVRVDNYDSP | 6.88 ± 0.087 |
| LKAQRFWTNNLSLEANSHRK | -0.573 ± 1.1 |
| LKCVHCYIRHLNFYFILPLC | inactive |
| LKEDF | inactive |
| LKGGIFRV | inactive |
| LKMCYFLRNKPTQMHVSGVY | 0.04 ± 0.5 |
| LKMSHIYCSIIITAYLNWLV | inactive |
| LKNFNLRIMTTPLNCNCNTY | -0.434 ± 0.29 |
| LKVGVIDNI | -1.2 ± 0.61 |
| LKWVTFEST | -0.418 ± 1.1 |
| LLFSSSSLPIGTGGYDLTAG | -0.408 ± 1.1 |
| LLFTGNLGFTVSRSLSRRDR | 6.945 ± 0.069 |
| LLGISLLSLWTFGYLSEIVV | 0 ± 0.8 |

| Substance | amyloid nucleation score |
| --- | --- |
| LLHLQYHLFMLCTVVNPHLL | -0.628 ± 0.54 |
| LLIFNGLYGWAIGDGLPSSW | 5.09 ± 0.051 |
| LLKARLLRSHLWVG | 0.057 ± 0.43 |
| LLKLCRRIKDATFDSLPGCA | 0.93 ± 0.31 |
| LLLCGNSRGQDEASSIVFTM | 0.726 ± 0.66 |
| LLLHWRSWMRKCHVITCWSS | 0.436 ± 0.35 |
| LLLPLFII | inactive |
| LLNSCSTVESWCNLGEMDKY | 0.122 ± 1.1 |
| LLPSLWV | -0.437 ± 0.63 |
| LLQKDEVRE | -0.505 ± 0.3 |
| LLRRGVDIWVEHFRE | -0.613 ± 0.64 |
| LLRSEVGDLILPCVLERCRP | 1.13 ± 0.36 |
| LLSIYVSSWKLRGSAPG | -0.337 ± 0.63 |
| LLTRLKGGPPARAPHSTSGL | 1.91 ± 0.13 |
| LLVFNLIYPSVRKGFFIIYA | inactive |
| LLYQKKDEWLGASYSLQKLS | -0.686 ± 0.37 |
| LLYQLRNMVILEHFMMIDFM | inactive |
| LLYTSWLV | 0.272 ± 0.41 |
| LMFCIENLAVMESELMGSCR | 0.464 ± 0.62 |
| LMGLQMSLPWSNEIVRVIPD | -0.663 ± 0.49 |
| LMHFGMKEEDYWKPCSICIS | inactive |
| LMLGSWQDKMPSLLWLDLCV | 0.86 ± 0.52 |
| LMLIVQDPCLSEINFKLDSG | 4.59 ± 0.11 |
| LMLRGLEEARAPRCESWPSW | 1.21 ± 0.34 |
